Experimental data published in article PMC9036120.
Read-outs that look alike come from different tables or passages of the source.

T1: PPARA;RXRA (mouse;mouse, UniProt P23204;P28700 1-468;1-467, |)
T1 sequence 1: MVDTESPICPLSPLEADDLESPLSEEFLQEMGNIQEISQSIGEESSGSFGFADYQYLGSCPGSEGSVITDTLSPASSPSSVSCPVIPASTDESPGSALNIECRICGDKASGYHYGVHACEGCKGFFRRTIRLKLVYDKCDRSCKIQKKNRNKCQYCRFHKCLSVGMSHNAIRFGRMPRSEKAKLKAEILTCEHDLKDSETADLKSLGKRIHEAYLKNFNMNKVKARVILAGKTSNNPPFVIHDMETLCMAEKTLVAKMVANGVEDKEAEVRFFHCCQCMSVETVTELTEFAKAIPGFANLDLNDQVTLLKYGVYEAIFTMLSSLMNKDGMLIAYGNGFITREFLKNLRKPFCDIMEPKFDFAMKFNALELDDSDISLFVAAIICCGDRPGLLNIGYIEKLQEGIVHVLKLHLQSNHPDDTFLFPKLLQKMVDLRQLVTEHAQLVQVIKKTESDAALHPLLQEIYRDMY
T1 sequence 2: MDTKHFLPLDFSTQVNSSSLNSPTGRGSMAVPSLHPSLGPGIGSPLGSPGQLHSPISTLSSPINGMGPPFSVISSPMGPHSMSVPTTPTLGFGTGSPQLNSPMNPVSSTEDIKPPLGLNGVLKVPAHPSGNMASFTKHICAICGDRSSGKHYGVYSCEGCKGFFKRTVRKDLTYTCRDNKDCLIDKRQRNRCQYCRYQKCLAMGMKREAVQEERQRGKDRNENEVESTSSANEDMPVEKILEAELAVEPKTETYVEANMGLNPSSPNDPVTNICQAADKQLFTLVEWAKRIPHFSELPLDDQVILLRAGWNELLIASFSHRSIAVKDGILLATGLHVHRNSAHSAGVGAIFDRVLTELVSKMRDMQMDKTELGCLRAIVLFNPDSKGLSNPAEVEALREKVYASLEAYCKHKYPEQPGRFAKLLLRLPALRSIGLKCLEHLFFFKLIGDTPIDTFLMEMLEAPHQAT

B1: Control (Acox1)-PPRE (dsDNA)
DNA 1: TCCCGAACGTGACCTTTGTCCTGGTCCCCTG
DNA 2: CAGGGGACCAGGACAAAGGTCACGTTCGGGA
B2: E2f8-PPRE4 (dsDNA)
DNA 1: AGGCCCAGTAGGTTAAAGGGCTGACATTTTA
DNA 2: TAAAATGTCAGCCCTTTAACCTACTGGGCCT
B3: Ppara-PPRE6 (dsDNA)
DNA 1: AAGTTTCAATGACCTTTGGGACAGTTAACTA
DNA 2: TAGTTAACTGTCCCAAAGGTCATTGAAACTT

What was measured:
PPARA;RXRA [1] = target: T1, PPARA;RXRA; experiment: EMSA
PPARA;RXRA [2] = target: T1, PPARA;RXRA; experiment: EMSA; remark: listed apart in the source

| Binder | binding result (PPARA;RXRA [1]) | binding result (PPARA;RXRA [2]) |
| --- | --- | --- |
| B1 | binds | – |
| B2 | – | binds |
| B3 | – | binds |
